Assay results: IntAct's records for PubMed 19103591

B1: Anti-sigma-E factor RseA (Escherichia coli (strain K12)), P0AFX7 (parent)
chain: MQKEQLSALMDGETLDSELLNELAHNPEMQKTWESYHLIRDSMRGDTPEVLHFDISSRVMAAIEEEPVRQPATLIPEAQPAPHQWQKMPFWQKVRPWAAQLTQMGVAACVSLAVIVGVQHYNGQSETSQQPETPVFNTLPMMGKASPVSLGVPSEATANNGQQQQVQEQRRRINAMLQDYELQRRLHSEQLQFEQAQTQQAAVQVPGIQTLGTQSQ
partner: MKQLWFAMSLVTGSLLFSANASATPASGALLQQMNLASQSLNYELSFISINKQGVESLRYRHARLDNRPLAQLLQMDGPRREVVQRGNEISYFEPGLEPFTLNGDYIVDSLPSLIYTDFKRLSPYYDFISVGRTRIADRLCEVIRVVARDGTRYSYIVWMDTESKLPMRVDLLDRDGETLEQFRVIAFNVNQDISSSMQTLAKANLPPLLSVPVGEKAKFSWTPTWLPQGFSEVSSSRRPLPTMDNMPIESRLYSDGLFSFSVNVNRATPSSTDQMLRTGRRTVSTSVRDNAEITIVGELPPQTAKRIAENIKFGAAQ
B2: Sigma-E factor regulatory protein RseB (Escherichia coli (strain K12)), P0AFX9 (parent)
chain: B1 partner
partner: B1 chain

Variants of: B1
Conditions: with rseb_ecoli rseB

effect of a mutation on the interaction | Variant
decreasing interaction | Q178A
decreasing interaction | E181A
decreasing interaction | M176A
decreasing interaction | D179A
decreasing interaction | H187A
decreasing interaction | L186A
decreasing interaction | L177A
decreasing interaction | Y180A
decreasing interaction | S188A
decreasing interaction | R185A
decreasing interaction | N174A
decreasing interaction | L182A
decreasing interaction | Q183A

Variants of: B1
Conditions: with rseb_ecoli rseB
Remark: another data set of the same source

effect of a mutation on the interaction | Variant
decreasing interaction | E189A
decreasing interaction | I173A

Variants of: B1
Conditions: with rseb_ecoli rseB
Remark: another data set of the same source

effect of a mutation on the interaction | Variant
increasing interaction strength | D179C
increasing interaction strength | L186C
increasing interaction strength | I173C

Variants of: B1
Conditions: with rseb_ecoli rseB
Remark: another data set of the same source

effect of a mutation on the interaction | Variant
increasing interaction strength | H187C

Variants of: B2
Conditions: with rsea_ecoli rseA

effect of a mutation on the interaction | Variant
decreasing interaction | E250A
decreasing interaction | R238A;R239A
decreasing interaction | Q182A
decreasing interaction | E178A
decreasing interaction | I249A
decreasing interaction | D176A
decreasing interaction | D245A;N246A;I249A;E250A
decreasing interaction | I249A;E250A
decreasing interaction | D171A

Variants of: B2
Conditions: with rsea_ecoli rseA
Remark: another data set of the same source

effect of a mutation on the interaction | Variant
decreasing interaction | E181A
decreasing interaction | D174A
